± gives the standard deviation of the averaged measurements.
Tested on: ATP
Test: switch fluorescence ratio, 500 uM ATP over buffer (Cy3 cluster intensity, sum of 5 cycles each) (fold (ratio)); higher = stronger signal-on switching upon ATP binding; sequences stand for … in TCGTCGGCAGCGTCAGATGTGTATAAGAGACAGTTTTTTTTTTTTTTTTTTTTTTTTT…TC
Conditions: aptamer strand: ATP DNA aptamer (quencher-CACCTGGGGGAGTATTGCGGAGGAAGG + anchor), 100 nM annealed; ATP concentration: 500 uM
Method in brief: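 Clusters carrying Cy3-labelled switching strands on a modified Illumina MiSeq flow-cell were annealed to 100 nM quencher-labelled ATP aptamer and imaged in selection buffer. They were imaged again after 15 min with 500 uM ATP at 22 °C, over five buffer/ATP cycles with NaOH stripping and re-annealing in between. For each cluster, the fluorescence ratio is the summed Cy3 intensity of the target cycles divided by that of the buffer cycles, averaged per switch-domain sequence. Clusters outside 100-1000 RFU were left out.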
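Further: ATP exposure 15 min at 22 °C before imaging.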

Row | Sequence | switch fluorescence ratio
1 | TAGGAGGTTC | 0.988 ± 0.021
2 | TAGGAGTGGG | 1 ± 0.01
3 | TAGGAGTTAG | 1 ± 0.047
4 | TAGGAGTTGC | 0.971 ± 0.052
5 | TAGGAGTTTG | 0.9894 ± 0.0046
6 | TAGGATACTT | 0.9769 ± 0.0016
7 | TAGGATGAAG | 1.03 ± 0.011
8 | TAGGATGGAG | 0.97358 ± 0.00078
9 | TAGGATGGGC | 1.04 ± 0.04
10 | TAGGATGGGG | 1 ± 0.032
11 | TAGGATGTAT | 0.9864 ± 0.0088
12 | TAGGATTATA | 0.964 ± 0.021
13 | TAGGATTGTA | 0.9806 ± 0.0089
14 | TAGGCAACGA | 1.04 ± 0.063
15 | TAGGCAGGGT | 1.56 ± 0.78
16 | TAGGCATTGG | 0.995 ± 0.014
17 | TAGGCATTTT | 1 ± 0.023
18 | TAGGCCTTAC | 1.43 ± 0.54
19 | TAGGCGTGGT | 1.01 ± 0.017
20 | TAGGCTATAT | 1.01 ± 0.042
21 | TAGGCTGCTG | 0.988 ± 0.021
22 | TAGGCTTTCG | 0.9957 ± 0.0076
23 | TAGGCTTTGG | 0.97 ± 0.0099
24 | TAGGCTTTGT | 1.01 ± 0.021
25 | TAGGGAAAGA | 1 ± 0.014
26 | TAGGGAAGAT | 1.07 ± 0.013

Row | Sequence | switch fluorescence ratio
27 | TAGGGACTGG | 0.996 ± 0.016
28 | TAGGGAGGGC | 1.03 ± 0.041
29 | TAGGGATTTG | 1.01 ± 0.014
30 | TAGGGATTTT | 0.986 ± 0.018
31 | TAGGGCATCG | 1.01 ± 0.03
32 | TAGGGCATGT | 0.9798 ± 0.0026
33 | TAGGGCATTG | 1.01 ± 0.012
34 | TAGGGCCAAC | 1.016 ± 0.0092
35 | TAGGGCGACT | 1.04 ± 0.049
36 | TAGGGCGCGT | 0.9947 ± 0.0094
37 | TAGGGCGGTT | 0.98 ± 0.046
38 | TAGGGCTTAG | 1.02 ± 0.032
39 | TAGGGGACAA | 1 ± 0.035
40 | TAGGGGAGGA | 0.993 ± 0.035
41 | TAGGGGCCTG | 0.9831 ± 0.0098
42 | TAGGGGCTTC | 0.979 ± 0.018
43 | TAGGGGGAGT | 0.962 ± 0.059
44 | TAGGGGGCAC | 1 ± 0.025
45 | TAGGGGGGCA | 0.991 ± 0.041
46 | TAGGGGGGGG | 1.02 ± 0.073
47 | TAGGGGGGTG | 1.02 ± 0.025
48 | TAGGGGGTAC | 1.31 ± 0.58
49 | TAGGGGGTTG | 0.987 ± 0.027
50 | TAGGGGGTTT | 0.99 ± 0.032
51 | TAGGGGTAGT | 1.01 ± 0.033
52 | TAGGGGTCAA | 0.99815 ± 0.0002

Row | Sequence | switch fluorescence ratio
53 | TAGGGGTGAT | 1.02 ± 0.047
54 | TAGGGTACCG | 1.06 ± 0.032
55 | TAGGGTTGGA | 1 ± 0.018
56 | TAGGGTTGTG | 0.9838 ± 0.0033
57 | TAGGTAAAGA | 0.98 ± 0.021
58 | TAGGTAGATG | 1.02 ± 0.018
59 | TAGGTAGGGT | 1.04 ± 0.073
60 | TAGGTATGCG | 1.18 ± 0.037
61 | TAGGTCGCCA | 1.04 ± 0.011
62 | TAGGTCTGCA | 1.033 ± 0.0058
63 | TAGGTCTGGG | 1.01 ± 0.036
64 | TAGGTGGGGG | 1.01 ± 0.039
65 | TAGGTGGGGT | 0.971 ± 0.016
66 | TAGGTGTGTA | 0.984 ± 0.031
67 | TAGGTGTTGC | 1 ± 0.023
68 | TAGGTTCCGG | 0.993 ± 0.034
69 | TAGGTTCCTT | 0.986 ± 0.035
70 | TAGGTTGGGG | 1.005 ± 0.0065
71 | TAGGTTGTCT | 1.03 ± 0.036
72 | TAGGTTTAAT | 0.992 ± 0.036
73 | TAGGTTTAGG | 0.987 ± 0.013
74 | TAGGTTTGGC | 1.03 ± 0.024
75 | TAGGTTTTCG | 0.98974 ± 0.00052
76 | TAGGTTTTTG | 1.01 ± 0.058
77 | TAGTAACGGT | 0.996 ± 0.053
78 | TAGTAAGGGG | 0.969 ± 0.051

Row | Sequence | switch fluorescence ratio
79 | TAGTAAGTTT | 0.998 ± 0.012
80 | TAGTAGAGTT | 1 ± 0.013
81 | TAGTAGCCTT | 1.03 ± 0.022
82 | TAGTAGGGCA | 1.01 ± 0.033
83 | TAGTATGAGG | 0.976 ± 0.021
84 | TAGTATGGCG | 1.04 ± 0.088
85 | TAGTATGGGA | 0.968 ± 0.013
86 | TAGTATTTAT | 1.02 ± 0.044
87 | TAGTCAGAAT | 0.967 ± 0.012
88 | TAGTCAGAGG | 1.01 ± 0.012
89 | TAGTCCCCCC | 1.21 ± 0.2
90 | TAGTCGATGC | 1.03 ± 0.034
91 | TAGTCGCTCC | 1.03 ± 0.034
92 | TAGTGAACTT | 1.01 ± 0.0054
93 | TAGTGAAGGG | 0.9974 ± 0.0061
94 | TAGTGATGCG | 0.967 ± 0.025
95 | TAGTGCCTGT | 0.995 ± 0.028
96 | TAGTGCGGTA | 1.036 ± 0.0022
97 | TAGTGGAAAC | 0.9885 ± 0.0015
98 | TAGTGGGGGC | 1.01 ± 0.044
99 | TAGTGGGGTA | 0.98 ± 0.032
100 | TAGTGGGTCC | 1.02 ± 0.037
101 | TAGTGGGTTA | 0.974 ± 0.023
102 | TAGTGGGTTG | 1 ± 0.021
103 | TAGTGTATCG | 0.993 ± 0.045
104 | TAGTGTCTTT | 0.993 ± 0.014

Row | Sequence | switch fluorescence ratio
105 | TAGTGTGTTG | 0.996 ± 0.011
106 | TAGTGTTGGG | 0.9837 ± 0.0015
107 | TAGTTAACTT | 1.01 ± 0.021
108 | TAGTTAATCG | 0.968 ± 0.017
109 | TAGTTACGAT | 1.04 ± 0.012
110 | TAGTTATGAG | 1.12 ± 0.19
111 | TAGTTATGGG | 0.998 ± 0.044
112 | TAGTTCGTTG | 0.9799 ± 0.0081
113 | TAGTTGAACA | 1.01 ± 0.021
114 | TAGTTGATGT | 1.026 ± 0.008
115 | TAGTTGGATT | 0.972 ± 0.038
116 | TAGTTGGGGC | 1.01 ± 0.026
117 | TAGTTGGGTT | 0.986 ± 0.041
118 | TAGTTGTAAA | 1.03 ± 0.075
119 | TAGTTGTTCC | 1.07 ± 0.07
120 | TAGTTGTTCT | 0.962 ± 0.022
121 | TAGTTTCTGG | 0.965 ± 0.02
122 | TAGTTTGGAA | 0.984 ± 0.04
123 | TAGTTTGGAT | 1.01 ± 0.026
124 | TAGTTTGGCA | 0.985 ± 0.037
125 | TAGTTTGGTT | 0.9887 ± 0.0052
126 | TAGTTTGTTT | 1.02 ± 0.074
127 | TATAAAACAC | 1.02 ± 0.013
128 | TATAAAACGG | 1.14 ± 0.045
129 | TATAAAAGTG | 0.958 ± 0.053
130 | TATAAATTGC | 1.01 ± 0.016

Row | Sequence | switch fluorescence ratio
131 | TATAACGCGC | 1.11 ± 0.061
132 | TATAAGACAT | 1.03 ± 0.038
133 | TATAAGACTT | 1.01 ± 0.035
134 | TATAAGAGTG | 1.03 ± 0.032
135 | TATAAGGGAG | 0.996 ± 0.023
136 | TATAAGGGTT | 1.01 ± 0.017
137 | TATAATCTGT | 1.01 ± 0.017
138 | TATACCGCGA | 2.49 ± 0.29
139 | TATACCGGCG | 1.05 ± 0.076
140 | TATACCTAGG | 1.003 ± 0.0065
141 | TATACGTGTG | 1.031 ± 0.0043
142 | TATACTATGT | 1.05 ± 0.024
143 | TATACTTAAT | 1.059 ± 0.0053
144 | TATAGAGGGG | 1.07 ± 0.15
145 | TATAGATAAG | 1.01 ± 0.015
146 | TATAGATTGG | 0.985 ± 0.019
147 | TATAGCATTA | 1.04 ± 0.014
148 | TATAGCCGAA | 1 ± 0.083
149 | TATAGGAGGG | 0.991 ± 0.039
150 | TATAGGCGCG | 1.03 ± 0.072
151 | TATAGGGACA | 1.2 ± 0.03
152 | TATAGGGATT | 0.984 ± 0.015
153 | TATAGGGGGT | 1.01 ± 0.036

— the supplement of paper PMC10126150
